Measured values: doi:10.1101/2024.08.24.609485

Target: GST-N-WASP-PRD (human) (UniProt O00401)
Experiment: mass photometry

- stoichiometry N: 2
Substance: GST-N-WASP-PRD (from UniProt O00401 261-332) (domain or fragment)
